The source of these data is patent US20070134249A1 (GENITOPE, published 2007).

One assay addresses T1, 710.
T1 construct: H1-8 L2-8; also called PIN710
The assay is described as follows: ELISA. Further details: key to grade: 0 = <0.5 OD, 1 = 0.5-1.0 OD, 4 = 1-4 OD. An excerpt:
(§1) Before specificity screening, all of the clonal immunogen-positive hybridoma supernatants were re-screened on the immunogen, a non-family member Id protein, and KLH, if animals were immunized with Id protein that has been conjugated KLH. As described above, this screen identifies HC-specific clones but not mAbs against the light chain constant region. Clones identified positive to the immunogen and KLH were […]. Those found positive to the immunogen but not to the non-family member Id protein or KLH were tittered on the immunogen. In addition to normalizing for different binding affinities and concentrations, each hybridoma supernatant was titered on the fully human form of the Id protein used as the immunogen(s) for the V regions. The titer or dilution resulting in an ELISA absorbance of 2.5 to 3 OD after 30 min. incubation time was then used. Hybridoma specificity was determined by screening against available Id proteins expressing the same HV and KV or LV as well as different HV, KV and LV. The final ELISA results are expressed as follows: 0 (<0.5 OD), 1 (0.5-1.0 OD), or 4 (1-4 OD). Positive hybridoma supernatants are categorized according to specificity: anti-Id, anti-constant region (HC, KC or LC), or V region (HV, KV, LV family or family member).
(§2) In general, the fully human Id protein or proteins containing the immunogen V regions were coated onto 96-well ELISA plates at 2.5-5 ug/mL in carbonate buffer pH 9.6 and incubated at 4° C. for up to 14 days. On the day of the ELISA, plates were brought to RT and blocked with Tris-Tween-20, pH 7.6 for 15-60 min. at RT. Following a NaCl and Triton X-100 wash, diluted hybridoma cell culture supernatants were incubated overnight at 4° C. Hybridoma supernatant dilutions ranged from 1:2 to 1:25 and were prepared in PBS with 5% BSA. Plates were washed and incubated with HRP-conjugated goat anti-mouse IgG-specific detecting antibody. A chromogenic substrate (TMB) was used to measure the amount of mouse antibody bound to each well. The reaction was stopped at or before 30 minutes with IN H2SO4 and plates were read immediately. Absorbency readings at 450 nm ranging between 0-4 OD and using Molecular Devices plate reader and SOFTMAX PRO software.

For another assay, the target named is T2, 116.
T2 construct: fully human Id protein; also called PIN116
The experiment in a line: ELISA. Further details: key to grade: 0 = <0.5 OD, 1 = 0.5-1.0 OD, 4 = 1-4 OD.
Text: as §1, §2
On the technique in general: ELISA stands for enzyme-linked immunosorbent assay.

The next assay concerns the target T3, 559.
T3 construct: H3-15 L2-23; also called PIN559
The experiment in a line: ELISA. On the set-up: key to grade: 0 = <0.5 OD, 1 = 0.5-1.0 OD, 4 = 1-4 OD.
Text: as §1, §2

The next assay concerns the target T4, 647.
T4 construct: fully human Id protein; also called PIN647
The assay is described as follows: ELISA. Further details: key to grade: 0 = <0.5 OD, 1 = 0.5-1.0 OD, 4 = 1-4 OD.
Text: as §1, §2

The target in a further assay is T5, 625.
T5 construct: H4-61 L2-8; also called PIN625
The experiment in a line: ELISA. On the set-up: key to grade: 0 = <0.5 OD, 1 = 0.5-1.0 OD, 4 = 1-4 OD.
Text: as §1, §2

In assay [1] the target is T6, PIN574 fully human Id protein (HV4-39 / LV1-40) (human).
T6 construct: Recombinant patient-derived idiotype immunoglobulin used as antigen, fully human form; also called Immunogen (for 20H5); not shown: human immunoglobulin heavy chain constant region, isotype G3 (HCG3); human immunoglobulin lambda light chain constant region (LC)
The assay is described as follows: ELISA. Further details: key to grade: 0 = <0.5 OD, 1 = 0.5-1.0 OD, 4 = 1-4 OD.
Text: as §1, §2

Another assay deals with T7, 604.
T7 construct: H4-34 L2-8; also called PIN604
The experiment in a line: ELISA. On the set-up: key to grade: 0 = <0.5 OD, 1 = 0.5-1.0 OD, 4 = 1-4 OD.
Text: as §1, §2

The target of a further assay is T8, 552.
T8 construct: H1-18 L2-8; also called PIN552
The experiment in a line: ELISA. On the set-up: key to grade: 0 = <0.5 OD, 1 = 0.5-1.0 OD, 4 = 1-4 OD.
Text: as §1, §2

The target of a further assay is T9, 746.
T9 construct: H4-39 L2-8; also called PIN746
The assay is described as follows: ELISA. Further details: key to grade: 0 = <0.5 OD, 1 = 0.5-1.0 OD, 4 = 1-4 OD.
Text: as §1, §2

The next assay deals with T10, 662.
T10 construct: fully human Id protein; also called PIN662
The experiment in a line: ELISA. Further details: key to grade: 0 = <0.5 OD, 1 = 0.5-1.0 OD, 4 = 1-4 OD.
Text: as §1, §2

The next assay deals with T11, 787.
T11 construct: also called PIN787
The assay is described as follows: ELISA. Further details: key to grade: 0 = <0.5 OD, 1 = 0.5-1.0 OD, 4 = 1-4 OD.
Text: as §1, §2

The target in a further assay is T12, 213.
T12 construct: H3-23 L1-51; also called PIN213
The assay is described as follows: ELISA.
Text: as §1, §2

The next assay deals with T13, 128.
T13 construct: H3-23 K1-27; also called PIN128
The experiment in a line: ELISA.
Text: as §1, §2

Assay [2] concerns the target T14, PIN149 fully human Id protein (HV3-23 / KV4-1) (human).
T14 construct: Recombinant patient-derived idiotype immunoglobulin used as antigen; also called PIN149 Id protein; Immunogen (for 3C9, 6C9, 10H7, 15E1); not shown: human immunoglobulin heavy chain constant region, isotype G3 (HCG3); human immunoglobulin kappa light chain constant region (KC)
The experiment in a line: ELISA.
Text: as §1, §2

The target in the next assay is T15, 834.
T15 construct: H3-23 K1-5; also called PIN834
The experiment in a line: ELISA.
Text: as §1, §2

The next assay concerns the target T16, 551.
T16 construct: H3-23 L1-40; also called PIN551
The experiment in a line: ELISA.
Text: as §1, §2

The target in the next assay is T17, 547.
T17 construct: also called PIN547
The experiment in a line: ELISA.
Text: as §1, §2

For the next assay, the target named is T18, 210.
T18 construct: H3-23 K3-11; also called PIN210
The experiment in a line: ELISA.
Text: as §1, §2

The next assay concerns the target T19, 203.
T19 construct: H3-23 L1-47; also called PIN203
The experiment in a line: ELISA.
Text: as §1, §2

In a further assay the target is T20, 232.
T20 construct: H3-23 K1-6; also called PIN232
The experiment in a line: ELISA.
Text: as §1, §2

A further assay deals with T21, 352.
T21 construct: H3-23 K1-39; also called PIN352
The experiment in a line: ELISA.
Text: as §1, §2

The target in the next assay is T22, 591.
T22 construct: H3-23 K4-1; also called PIN591
The experiment in a line: ELISA.
Text: as §1, §2

The next assay addresses T23, 571.
T23 construct: H3-23 K3-11; also called PIN571
The assay is described as follows: ELISA.
Text: as §1, §2

The next assay deals with T24, 617.
T24 construct: H3-23, VL 1-44, LC printed K; also called PIN617
The experiment in a line: ELISA.
Text: as §1, §2

Another assay addresses T25, 522.
T25 construct: H3-23 L1-40; also called PIN522
The experiment in a line: ELISA.
Text: as §1, §2

Another assay concerns the target T26, 850.
T26 construct: H3-23 K2-30; also called PIN850
The assay is described as follows: ELISA.
Text: as §1, §2

A further assay addresses T27, 576.
T27 construct: H3-23 L1-51; also called PIN576
The assay is described as follows: ELISA.
Text: as §1, §2

The target of the next assay is T28, 540.
T28 construct: H3-23 K3-20; also called PIN540
The experiment in a line: ELISA.
Text: as §1, §2

A further assay concerns the target T29, 778.
T29 construct: H3-23 K3-11; also called PIN778
The experiment in a line: ELISA.
Text: as §1, §2

For assay [3], the target named is T14, PIN149 fully human Id protein (HV3-23 / …). The assay is described as follows: SPR (BIACORE 2000); mAb captured on anti-mouse surface, fully human Id protein as analyte, 25 C. The procedure: (§3) Binding constants were also determined for three of the sequenced clones (3C9, 10H7, and 20H5), as well as for two additional clones (6C9 and 15E1). The association and disassociation rates were measured by surface plasmon resonance using a BIACORE 2000 machine.
(§4) In addition, based on ELISA results, PIN185 was used as a positive control Id protein for 10H7 and 15E1 and a negative control Id protein for 3C9 and 6C9 and PIN149 was used as a non-binding Id protein for 20H5. Each mAb was captured onto an anti-mouse surface and tested for binding to the fully human Id protein. Following the mAb capture phase of the assay for the (@2 ug/ml), the fully human Id proteins were all diluted to a starting concentration of 250 nM and tested in a three fold dilution series. Each concentration was tested in duplicate. The running buffer contained PBS plus 0.005% tween-20 and 0.1 mg/ml BSA as a carrier. Binding data were collected at 25° C. […] The other data sets all fit well to a single site interaction model.

Assay [4] concerns the target T6, PIN574 fully human Id protein (HV4-39 / …). The assay is described as above. As for the experimental part: as §3, §4
Assay [5] concerns the target T14, PIN149 fully human Id protein (HV3-23 / …). The experiment in a line: SPR (BIACORE 2000); mAb captured on anti-mouse surface, fully human Id protein as analyte. The procedure:
as §3, §4

In general, Kd refers to the equilibrium constant for the complex coming apart. Usually koff stands for the first-order rate constant of dissociation. In general, kon refers to the second-order rate constant of association.

T14 sequence (VH, as listed by the source, chain 1 of 2): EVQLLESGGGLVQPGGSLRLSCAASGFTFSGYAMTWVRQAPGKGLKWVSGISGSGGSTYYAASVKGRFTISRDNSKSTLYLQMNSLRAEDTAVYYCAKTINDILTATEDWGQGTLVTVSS
T14 sequence (VL, as listed by the source, chain 2 of 2): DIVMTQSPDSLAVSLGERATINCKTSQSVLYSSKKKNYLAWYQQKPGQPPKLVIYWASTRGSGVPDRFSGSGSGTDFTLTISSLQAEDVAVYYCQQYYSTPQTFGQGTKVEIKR
T6 sequence (VH, as listed by the source, chain 1 of 2): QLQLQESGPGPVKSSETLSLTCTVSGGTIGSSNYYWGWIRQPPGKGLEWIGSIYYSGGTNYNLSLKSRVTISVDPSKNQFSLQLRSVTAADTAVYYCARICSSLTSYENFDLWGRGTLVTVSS
T6 sequence (VL, as listed by the source, chain 2 of 2): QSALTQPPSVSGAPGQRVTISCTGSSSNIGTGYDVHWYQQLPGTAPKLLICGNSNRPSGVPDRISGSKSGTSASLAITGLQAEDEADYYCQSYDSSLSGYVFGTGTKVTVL
T4 sequence (VH, as listed by the source, chain 1 of 2): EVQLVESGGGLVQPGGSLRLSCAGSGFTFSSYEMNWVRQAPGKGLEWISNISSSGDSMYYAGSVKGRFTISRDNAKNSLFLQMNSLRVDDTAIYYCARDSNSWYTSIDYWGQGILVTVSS
T4 sequence (VL, as listed by the source, chain 2 of 2): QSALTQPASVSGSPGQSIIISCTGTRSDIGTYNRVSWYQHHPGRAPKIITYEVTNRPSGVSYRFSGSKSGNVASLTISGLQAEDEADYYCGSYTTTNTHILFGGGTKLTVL
T2 sequence (VH, as listed by the source, chain 1 of 2): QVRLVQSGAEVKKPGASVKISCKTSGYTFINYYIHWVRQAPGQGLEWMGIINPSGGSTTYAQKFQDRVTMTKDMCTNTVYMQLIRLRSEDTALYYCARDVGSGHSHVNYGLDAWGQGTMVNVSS
T2 sequence (V domain, as listed by the source, chain 2 of 2): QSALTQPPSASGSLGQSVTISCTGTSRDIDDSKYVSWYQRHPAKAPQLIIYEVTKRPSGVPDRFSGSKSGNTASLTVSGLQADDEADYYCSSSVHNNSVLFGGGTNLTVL
T10 sequence (heavy, as listed by the source): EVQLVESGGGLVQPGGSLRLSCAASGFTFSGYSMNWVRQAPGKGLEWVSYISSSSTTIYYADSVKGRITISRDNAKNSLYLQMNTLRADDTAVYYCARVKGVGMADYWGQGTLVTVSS

B1: mAb clone 15E8 (antibody, V domains shown)
VH: QVQLQQPGAELVMPGASVKMSCKASGYTFTDYWMHWVKQRPGQGLEWIGTIDTSDSYTNYNQKFKGKATLTVDESSSTAYMQLSSLTSEDSAVYYCVRWKKYGNYFFDYWGQGTTLTVSS
VL: DIVMTQSHKFMSTSVGDRVSITCKASQDVNTAVAWYQQKPGQSPKLLIYWASTRHTGVPDRFTGSGSGTDFSLTISSVQAEDLGLYYCQQCYSTPYAFGGGTKLEIKR
notes: Mouse hybridoma mAb, fusion 16 (immunogen PIN116)
For B1, the grade in the assay with 710, in the assay with 116, in the assay with 559, in the assay with 625, with 604 and with 552 was 4 in each case. The grade in the assay with 746 is 4; with 662 it was 4; with 787 it was 1. The binding result (with 647; in [1]) was “no binding” in each case.

B2: mAb clone 3C9 (antibody, V domains shown)
VH: EVQLQQSGPELEKPGASVKISCKASGYSFTAYNMNWVKQNNGKSLEWIGNIDPYHGGTNYNQKFKGKATLTVDKSSSTAYMQLKSLTSEDYAVYYCARGGGDWSWFAYWGQGTLVTVSA
VL: DIVMTQSHKFMSTSVGDRVSITCKASQDVNTAVAWYQQKPGQSPKVLIYWASNRHTGVPDRFTGSGSGTDYTLTISSMQAEDLALYYCHQHYSTPWTFGGGTKLEIER
notes: Mouse hybridoma mAb, fusions 13/14 (immunogen PIN149 chimera-KLH); also called anti-IGHV3-23 monoclonal 3C9
For B2, the grade amounted to 1 with 213; 4 with 128; 4 in assay [2]; 4 in the assay with 834; 4 with 551; 4 in the assay with 547. Besides, the grade with 210, with 203, in the assay with 232, in the assay with 352, in the assay with 591 and in the assay with 571 was 4 each time. The grade in the assay with 617, with 522, in the assay with 850, with 576, with 540 and in the assay with 778 was 4 in each case. The same molecule returned a Kd in [3] of 1.78 nM. The molecule also came in with a koff in assay [3] of 0.000134 s⁻¹. The kon in [3] worked out at 74900 M⁻¹ s⁻¹.

B3: mAb clone 20H5 (antibody, V domains shown)
VH: QVQLKESGPDLVAPSQSLSITCTVSGFSLTSYGVHWVRQPPGKGLEWLVVIWSDGSTTNNSPLKSRLSISKDNSKSQVFLKMNSLQTDDTAMYYCARHWGTTVVDAMDYWGQGTSVTVSS
VL: DIQMTQTTSSLSASLGDRVIISCRASQDIRNYLNWYQQKPDGTVKLLIYYTSQLHSGVPSRFSGSGSGTDYSLTINNLSEQEDIATYFCQQYDTLPWTFGGGTKLEIKR
notes: Mouse hybridoma mAb, fusion 10 (immunogen fully human PIN574 Id protein)
In assay [4], B3 had a Kd of 1.92 nM, a koff of 0.000146 s⁻¹ and a kon of 75900 M⁻¹ s⁻¹. The binding result in [5] is reported as “no binding”.
